From patent publication US20150203573A1 (MEDICAL AND BIOLOGICAL LABORATORIES, published 2015)
Changes are numbered by the printed parent chain. Each block holds one binder with its values, some of them ahead of it.

Tests used:
[1] = target: AP-MK, recombinant protein having alkaline phosphatase (AP) fused to the N-terminal of aa23-121 of MK (human) (UniProt P21741); assay: AP-MK binding inhibition assay on TNB1 cells; antibody 10 ug/mL
Target sequence in this assay (P21741 23-143, form in doubt): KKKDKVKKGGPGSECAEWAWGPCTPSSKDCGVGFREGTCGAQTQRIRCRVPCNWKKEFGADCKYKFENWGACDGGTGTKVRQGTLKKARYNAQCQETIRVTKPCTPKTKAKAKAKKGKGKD

[2] = target: T1, mutant MK recombinant protein MK-R81Q (human, UniProt P21741 23-143, R81Q); assay: ELISA, plates coated with wild type or mutant MK, antibody serially diluted from 5 ug/mL
T1 construct: range 23-143; Made from MKver10-pQCxmhIPG, secreted from 293T cells; not shown: linker and tag from vector pQCxmhIPG
T1 sequence (looked up): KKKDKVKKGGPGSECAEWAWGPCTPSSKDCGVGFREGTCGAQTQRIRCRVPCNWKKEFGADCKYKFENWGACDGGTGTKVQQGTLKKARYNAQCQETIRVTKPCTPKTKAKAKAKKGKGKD
Method: (§1) Hybridomas producing anti-MK antibodies were selected by enzyme-linked immunosorbent assay (ELISA). The assay used the aforementioned recombinant human MK (MKver10) which had been dispensed in a 96-well ELISA plate (nunc) in an amount of 0.5 μg/mL (50 μL/well) and left to stand for 2 hours at room temperature or overnight at […] for adsorption. After removal of the resulting solution, 1% BSA (Nacalai: 01863-35)-5% Sucrose (WAKO)-PBS was added in an amount of 150 μL/well, and the system was allowed to stand for 2 hours at room temperature to block the remaining active groups. After standing of the system, the resulting solution was removed, and the hybridoma culture supernatant (50 μL/well) was dispensed as a primary antibody, whereafter the system was allowed to stand for 1 hour. After the plate was washed with 0.05% Tween 20-PBS, HRP-labeled goat anti-mouse IgG (MBL: 330) diluted 1:10000 was added as a secondary antibody in an amount of 50 μL/well, and the system was allowed to stand for 1 hour at room temperature. After the plate was washed with 0.05% Tween 20-PBS, a color developing solution (5 mM sodium citrate, 0.8 mM 3,3′,5,5′-tetramethylbenzidine-2HCl, 10% N,N-dimethylformamide, 0.625% polyethylene glycol 4000, 5 mM citric acid monohydrate, 5 mM H₂O₂) was added in an amount of 50 μL/well, and the system was allowed to stand for 20 minutes at room temperature to develop a color. 1M phosphoric acid was added in an amount of 50 μL/well to terminate color development, and then the absorbance at 450 nm was measured using a plate reader (Thermo Fisher Scientific).
(§2) The reactivities of the resulting antibodies with the mutant MKs were confirmed by the same enzyme-linked immunosorbent assay (ELISA) as described above. The assays used plates having wild type human MK (MKver10) or the above-mentioned mutant MK (MK-W69A, MK-K79Q, MK-R81Q and MK-K102Q) adsorbed thereto. The anti-MK antibody at a maximum concentration of 5 μg/mL was serially diluted with PBS, and used as a primary antibody. As examples of the antibodies recognizing the N-terminal side or the C-terminal side of midkine, but showing no neutralizing activity, BF106 and FB74 were also evaluated similarly.

[3] = target: T2, mutant MK recombinant protein MK-W69A (human, UniProt P21741 23-143, W69A); assay: as above
T2 construct: range 23-143; Made from MKver10-pQCxmhIPG, secreted from 293T cells; not shown: linker and tag from vector pQCxmhIPG
T2 sequence (looked up): T1 sequence (looked up) with W69A, Q81R
Method: as §1, §2

[4] = target: T3, mutant MK recombinant protein MK-K79Q (human, UniProt P21741 23-143, K79Q); assay: as above
T3 construct: range 23-143; Made from MKver10-pQCxmhIPG, secreted from 293T cells; not shown: linker and tag from vector pQCxmhIPG
T3 sequence (looked up): T1 sequence (looked up) with K79Q, Q81R
Method: as §1, §2

[5] = target: T4, mutant MK recombinant protein MK-K102Q (human, UniProt P21741 23-143, K102Q); assay: as above
T4 construct: range 23-143; Made from MKver10-pQCxmhIPG, secreted from 293T cells; not shown: linker and tag from vector pQCxmhIPG
T4 sequence (looked up): T1 sequence (looked up) with Q81R, K102Q
Method: as §1, §2

[6] = target: T5, full length purified peptide of pleiotrophin (PEPTIDE INSTITUTE, INC.: 4335-v) (UniProt P21246 33-168, limits assumed); assay: ELISA on full length purified peptide of pleiotrophin
T5 construct: mature; Bought product; also called PTN
T5 sequence (looked up): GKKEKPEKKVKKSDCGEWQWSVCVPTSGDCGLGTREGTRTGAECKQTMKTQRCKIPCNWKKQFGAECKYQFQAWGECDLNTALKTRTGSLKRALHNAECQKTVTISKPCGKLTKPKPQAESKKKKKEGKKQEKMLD

[7] = target: AP-MK, recombinant protein having alkaline phosphatase (AP) fused to the N-terminal of aa23-121 of MK (human) (UniProt P21741); assay: AP-MK binding inhibition assay on TNB1 cells; AP-MK 0.6 U/ml, antibody 90 ug/mL

B1: hFB54-matu024 affinity-improved antibody (IgG) (antibody, V domains shown)
VH: EVQLVESGGGLVKPGGYLRLSCAASGFTFSSYAMSWVRQAPGKGLDWVATISSGGSYTYYPDSVKGRFTISRDNAKNSLYLQMNSLTDDDTAVYFCARHNYRYGEYYYAMDYWGQGTLVTVSS
VL: ETTVTQSPSSLSASVGDRVTIRCITSIDIDDEMNWYQQKSGKGPKLLISEGNTLRPGVPSRFSSSGYGTDFTLTISSLQPEDFATYYCLQSDNLPYTFGQGTKLEIK
relative AP activity (% of wells with AP-MK alone) [1]: 22.7%

B2: hFB54-matu020 affinity-improved antibody (IgG) (antibody, V domains shown)
VH: B1 VH with L18Q, S85N, G104D, Y108H
VL: B1 VL with S40P
relative AP activity (% of wells with AP-MK alone) [1]: 26.8%

B8: hFB54-matu014 affinity-improved antibody (IgG) (antibody, V domains shown)
VH: B1 VH with A40T, A75V, G104D
VL: B1 VL with S26N, S40P, Q100R
relative AP activity (% of wells with AP-MK alone) [1]: 25.6%

B9: anti-human midkine mouse monoclonal antibody FB54 (antibody, V domains shown)
VH: EVMLVESGGGLVKPGGSLKLSCAASGFTFSSYAMSWVRQTPEKRLEWVATISSGGSYTYYPDSVKGRFTISRDNAKNTLYLQMSSLRSEDTAMYFCARHNYRYDEYYYAMDYWGQGTSVTVSS
VL: ETTVTQSPTSLSMAIGEKVTIRCITSTDIDDEMNWYQQKPGEPPKLLISEGNTLRPGVPSRFSSSGYGTDFVFTIENMLSEDVADYYCLQSDNLPYTFGGGTKLEIK
notes: Mouse hybridoma IgG; variable genes were amplified with mouse IgG1 CH1 and kappa constant primers; also called mFB54; mouse FB54 antibody
binding result [2]: binds
binding result [3]: binds
binding result [4]: binds
binding result [5]: binds
binding result [6]: no binding
relative AP activity (% of wells with AP-MK alone) [7]: 29.5%

Next, values leading:

relative AP activity (% of wells with AP-MK alone) [1]: 30.1%
B3: hFB54-matu039 affinity-improved antibody (IgG) (antibody, V domains shown)
VH: B1 VH with Q3R, G66E, G104D, A109G
VL: B1 VL with I24K, S40P, E105G

relative AP activity (% of wells with AP-MK alone) [1]: 28.3%
B4: hFB54-matu062 affinity-improved antibody (IgG) (antibody, V domains shown)
VH: B1 VH with K76E, S78T, D88N, G104D
VL: B1 VL with S14F, D17G, T20A, S26N, S40P, L89M

relative AP activity (% of wells with AP-MK alone) [1]: 81.8%
B5: humanized FB54 antibody hFB54 (FB54-rHa/FB54-rKc) (antibody, human IgG1, V domains shown)
VH: B1 VH with G104D
VL: B1 VL with I27T, S40P

relative AP activity (% of wells with AP-MK alone) [1]: 33.5%
B6: hFB54-matu054 affinity-improved antibody (IgG) (antibody, V domains shown)
VH: B1 VH with A75T, S78T, G104D
VL: B1 VL with D30E, S40P

relative AP activity (% of wells with AP-MK alone) [1]: 33%
B7: hFB54-matu072 affinity-improved antibody (IgG) (antibody, V domains shown)
VH: B1 VH with S63N, G104D, Y108H
VL: B1 VL with S12F, R18K, S40P

relative AP activity (% of wells with AP-MK alone) [1]: 20%
B10: mFB54-matu089 affinity-improved antibody (IgG) (antibody, V domains shown)
VH: B9 VH with K13E, A23T, A24V, Q115H
VL: B9 VL with T27I, M78V

relative AP activity (% of wells with AP-MK alone) [1]: 18.9%
B11: mFB54-matu002 affinity-improved antibody (IgG) (antibody, V domains shown)
VH: B9 VH
VL: B9 VL with I24T, T27I, K39M
